PMC9602339, “Diaminopimelic Acid Metabolism by Pseudomonadota in the Ocean” (Microbiology Spectrum, 2022)

B1: LysA (DAP decarboxylase) from strain A40-4 (Halomonas sp. A40-4) (protein)
chain: MDHFNDRDGLLFAEDVPLDRIAETYGTPCYVYSKATLTRHFRAYTEALGGHPHLICYAVKANSNLAVLGLLAKLGAGFDIVSVGELERVLKAGGDPDKVVFSGVAKQPHEMARALEVGIKCFNVESRPELERLNAVAGELGKMAPVSLRVNPDVDAGTHPYISTGLKDNKFGIPVDDALTVYELAASLPNLQVKGLDCHIGSQLTETAPFLDALERLLVLMERLRERGIEIDHLDLGGGLGVPYRDETPPHPFDYASQLLSRLSRWEGGEQLTLLFEPGRSIAANAGIMLTRVEFLKPGETKNFAIVDAAMNDLIRPALYQAWQAIVPVDTRSARETSIYDVVGPVCETGDFLGQERELAIAAGDLLAVRSAGAYGFVMASNYNSRPRPAEVMVDGERCHLVRARETLESLWSGEALLPEGGC
notes: lysA complementation fragment 1,272 bp
B2: LysA (DAP decarboxylase) from strain A40-3 (Thalassospira sp. A40-3) (protein)
chain: MNHFEYINSELYAEGVSIREMADKVGTPFFCYSTATLERHYKVYADAFDGLDATVCFAVKANSNQAVLKTLANLGAGADVVSVGEMRRALRAGMPPAKIIFSGVGKADAEMREALDADIAQINVESIPELVELNRVAIDMGKKARIALRVNPHVDAKTHEKIATGKAENKFGIDWTRAIEVYREAAAMDGIEVTGIAMHIGSQLTDLAPFREAFTRLAGLVEQLRSEGIDIRNLDLGGGLGIAYQGETPPLPDAYGQMVRETVGHLGCHITLEPGRLIAGNAGIMVSRVMYIKDGEAKRFVILDAAMNDLIRPTLYGAYHEIIPVDEQTDGDKQVKVDVVGPVCETGDTFGKDRDLPDDLKAGDLVAVMSAGAYGAVMSSTYNTRALTPEVLVKGNNFAIVRPRQEIDDLINMDLVPSWLSNA
notes: full length 423 residues

How the values were obtained:
[1] = substrate: NC(CCCC(N)C(=O)O)C(=O)O; test: initial rates, Lys production by amino acid analyzer; nonlinear Michaelis-Menten fit; type: biochemical, Halomonas sp. A40-4; settings: 0 to 12 mM DAP, 200 mM Tris-HCl pH 8.0, PLP (100 mM [sic]), 25°C, DAP stereoisomer not given
Excerpt: initial rates, Lys production by amino acid analyzer; nonlinear Michaelis-Menten fit on LysA (DAP decarboxylase) from strain A40-4

[2] = substrate: NC(CCCC(N)C(=O)O)C(=O)O; test: as above; type: biochemical, Thalassospira sp. A40-3; settings: 0 to 12 mM DAP, 200 mM Tris-HCl pH 8.0, PLP (100 mM [sic]), 25°C, DAP stereoisomer not given
Excerpt: initial rates, Lys production by amino acid analyzer; nonlinear Michaelis-Menten fit on LysA (DAP decarboxylase) from strain A40-3

Row | Protein | Km [1] [µM] | Vmax [1] [µmol/min/mg] | kcat [1] [s⁻¹] | Km [2] [µM] | Vmax [2] [µmol/min/mg] | kcat [2] [s⁻¹]
1 | B1 | 720 ± 140 | 58.3 | 41.6 ± 0.88 | – | – | –
2 | B2 | – | – | – | 1890 ± 340 | 37.7 | 26.9 ± 2.42
